# Laboratory results taken from paper PMC2854098 (Molecular Biology of the Cell, 2010).
# Biological target: recombinant, active murine ERK2 protein (murine, UniProt P63085 1-358)
# Assay: pull-down
row,binding result,Binder
1,binds,"recombinant h1CaP-CBD (natural protein, ferret, UniProt Q9GK38 1-297, looked up) MSSAHFNRGPAYGLSAEVKNKLAQKYDHQREQELREWIEGVTGRRIGSNFMDGLKDGIILCEFINKLQPGSVKKVNESTQNWHQLENIGNFIKAITKYGVKPHDIFEANDLFENTNHTQVQSTLLALASMAKTKGNKVNVGVKYAEKQERKFEPEKLREGRNIIGLQMGTNKFASQQGMTAYGTRRHLYDPKLGTDQPLDQATISLQMGTNKGASQAGMTAPGTKRQIFEPGLGMEHCDTLNVSLQMGSNKGASQRGMTVYGLPRQVYDPKYCLTPEYPELGEPTHNHHAHNYYNSA"
2,binds,"recombinant h3/acidic CaP-CBD (natural protein, rat, UniProt P37397 1-330, looked up) MTHFNKGPSYGLSAEVKNKIASKYDQQAEEDLRNWIEEVTGMGIGTNFQLGLKDGIILCELINKLQPGSVKKVNESSLNWPQLENIGNFIKAIQAYGMKPHDIFEANDLFENGNMTQVQTTLVALAGLAKTKGFHTTIDIGVKYAEKQTRRFDEGKLKAGQSVIGLQMGTNKCASQAGMTAYGTRRHLYDPKMQTDKPFDQTTISLQMGTNKGASQAGMSAPGTRRDIYDQKLTLQPVDNSTISLQMGTNKVASQKGMSVYGLGRQVYDPKYCAAPTEPVIHNGSQGTGTNGSEISDSDYQAEYPDEYHGEYPDEYPREYQYGDDQGIDY"
